Here are results for 19 sequences from the supplement of paper PMC9170038.

Settings in all cases: FMN input: 0 or 200 uM; Eterna round: R93 (includes R88 designs)
Series [1] relates to MS2 coat protein. Put plainly: apparent KD of MS2 coat protein, switch OFF state (with FMN for OFF switches, without FMN for ON switches); designed switch direction (-1 OFF switch, 1 ON switch): 1; higher = weaker reporter binding. In a few lines: (§1)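 Designed RNA switches were transcribed on-chip from Illumina sequencing clusters and titrated with SNAP-549-labelled MS2 coat protein in twofold steps from 0.7 or 1.5 nM up to 3 µM. Each step lasted 0.8–1.5 h at first and 10–20 min by the end, in 100 mM Tris-HCl pH 7.5, 80 mM KCl and 4 mM MgCl2, without or with constant ligand. Apparent KD is the median, for each design, of fits to normalised cluster binding curves.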

Series [2] has as its system MS2 coat protein. Put plainly: apparent KD of MS2 coat protein, switch ON state; designed switch direction (-1 OFF switch, 1 ON switch): 1; higher = weaker reporter binding. A digest of the protocol:
as §1

Series [3] has as its system MS2 coat protein. The series can be described thus: apparent KD of MS2 coat protein, switch ON state; designed switch direction (-1 OFF switch, 1 ON switch): -1; higher = weaker reporter binding. In a few lines:
as §1

Series [4] deals with MS2 coat protein. The series can be described thus: apparent KD of MS2 coat protein, switch OFF state (with FMN for OFF switches, without FMN for ON switches); designed switch direction (-1 OFF switch, 1 ON switch): -1; higher = weaker reporter binding. A digest of the protocol:
as §1

For the sequence “AAAAAAAAAAACUAGGAUAUUUAACGGACAACAUGAGGAUCACCCAUGUCACAAAAAAAAAUAGUAAAGAAGGAGUAAAAAAAAAA [Same State 2]”, the “apparent KD of MS2 coat protein” value in the series with MS2 coat protein [1] worked out at 23.8 nM; in the series on MS2 coat protein [2] it was 25 nM.
The matching figures for “AAAAAAAAAACUGAGGAUAUGAAAUAAUAGACAUGAGGAUCACCCAUGUUUUCGGUCGAAAAAAUGCAGAAGGCAGAAAAAAAAAA [JR_SameState2_Sub3]”: 23.8 nM and 19.4 nM.
The matching figures for “AAAAAAAAAAGCUAGGAUAUCCAAAAAAAAACAUGAGGAUCACCCAUGUAAAAAAAAAAAAAAUGGGAGAAGGAGCAAAAAAAAAA [Mod of Eli]”: 39.6 nM and 28.5 nM.
The corresponding values for “AAAAAAAAAAGUGAGGAUAUGUGAUCGGUGACAUGAGGAUCACCCAUGUGAGGCCUUCGGGCCAAGCAGAAGGUAUAAAAAAAAA [Same State 2-VII]” are 29.4 nM and 105 nM.
On to “AAAAAAAAAGUAGAGGAUAUCCGAGUGGUAACAUGAGGAUCACCCAUGUGAAGAAAGGAAGAUGAGGAGAAGGCUACAAAAAAAAA [Mat - Mod of Nando]”, for which the “apparent KD of MS2 coat protein” value with MS2 coat protein [1] amounted to 42.2 nM; with MS2 coat protein [2], 21.2 nM.
Regarding “AAAAAACAUGAGGAUCACCCAUGUAAAAAUAUCACAGGAUAUGGAAACACGAAAGUGAAACCAGAAGGGUGAAAAG [77%, Mat - Mod of Eli, 12]”, the results for the “apparent KD of MS2 coat protein” value with MS2 coat protein [1] and in the series on MS2 coat protein [2] were 44.1 nM and 20.1 nM, respectively.
The matching figures for “AAAAAACAUGAGGAUCACCCAUGUAAUAAAACGUCAGGAUAUUGAUUUUAUUAUUUAUUGCAAGAAGGGACAAAAA [Same State 1 - Omei 2]”: 40.3 nM and 20.4 nM.
The matching figures for “AAAAAACAUGAGGAUCACCCAUGUAAUAAAACGUCAGGAUAUUGAUUUUAUUAUUUAUUGCGAGAAGGGACAAAAA [Same State 1 - Omei 3]”: 28.6 nM and 20.2 nM.
The corresponding values for “AAAAAACAUGAGGAUCACCCAUGUAAUUAAAACGCAGGAUAUAGAAAAAAAAAAAUGUUACUAGAAGGGUGAAAAA ['Same State 1']” are 62.9 nM and 113 nM.
Turning to “AAAAAACAUGAGGAUCACCCAUGUAGAAACAUGGGAGGAUAUACAAAGACGAAAGUCAAAGUAGAAGGCCUAAGAA [Mat - Same State 1 - Mod - D166]”, the results for the “apparent KD of MS2 coat protein” value in the series on MS2 coat protein [1] and in the series with MS2 coat protein [2] were 58.2 nM and 81.8 nM, respectively.
The matching figures for “AAAAAACAUGAGGAUCACCCAUGUCGAAAGACAUGAGGAUAUGUGUGGAAACCAUACUAUACAGAAGGCAUAAAAA [SS1 - 1009]”: 66.1 nM and 82.6 nM.
The matching figures for “AAAAAACAUGAGGAUCACCCAUGUGAAAAAAUCGCAGGAUAUCCCUUUUUUAAAUGGGAGGGAGAAGGGUGAAAAA [Nob's Hobby 15 - Jieux - Same State 1]”: 84.7 nM and 40.3 nM.
The matching figures for “AAAAAACAUGAGGAUCACCCAUGUGAGAACAUGGGAGGAUAUACGAGGACGAGAGUCAUAGUAGAAGGCCUAAAAA [Garnet 67]”: 65.6 nM and 109 nM.
In the case of “GAAGAACAUGAGGAUCACCCAUGUCAGGAUAUACAGAAGGGAAUAAUAUAACCUGAAAGUAGAAGGGACAAGAA [Ex 1 May 43]”, the “apparent KD of MS2 coat protein” value was determined as 33.9 nM with MS2 coat protein [3] and 46.2 nM in the series with MS2 coat protein [4].
Consider “GAAUGACUAGGAUAUACAUGAGGAUCACCCAUGUGUAUAAAUAAAUACACAAAAGAAAGUAGAAGGAGUCAAAG [Mat - Exclusion 3 - Mayanna mod - D124]”, for which the “apparent KD of MS2 coat protein” value came to 20.8 nM with MS2 coat protein [3] and 83.2 nM with MS2 coat protein [4].
The corresponding values for “GAGAAGUUAGGAUAUACAGCGGGUAGCCGCGGUGGCCUUAGACAUGAGGAUCACCCAUGUAGAAGGAACGAAAA [Tebied]” are 28.9 nM and 12.6 nM.
The corresponding values for “GAUCAGCUAGGAUAUACAUUAAUCCGAAAUGAGAAGAAAGAACAUGAGGAUCACCCAUGUAGAAGGAGCCAGUA [Usinisat]” are 33.7 nM and 32.1 nM.
The matching figures for “GCAAAGUGAGGAUAUACGCGAACAAAAAUAAAAAAGAAAGCGUAGAAGGCACAUGAGGAUCACCCAUGUCCAGC [Mat - Exaclusion 4 - Eli mod - D77]”: 23.7 nM and 30.3 nM.
As for “GCAGGCCAAGGAUAUACAUGAGGAUCACCCAUGUGAGAGAAAAAAGUGAGAAAGAAAAGUAGAAGGUGGUUUGG [salish99-ex3-113]”, the “apparent KD of MS2 coat protein” value stood at 71.7 nM in the series with MS2 coat protein [3] and 114 nM in the series with MS2 coat protein [4].
